Test results from the supplement of paper PMC7877785.
± gives the uncertainty stated by the source.

Test: self-splicing fitness, log relative to wild type (ln ratio); higher = more splicing; Tetrahymena group I intron in knt gene, E. coli kanamycin selection, DiMSum; sequences stand for … in CUCUCU…GGAGGGAAAAGUUAUCAGGCAUGCACCUGGUAGCUAGUCUUUAAACCAAUAGAUUGCAUCGGUUUAAAAGGCAAGACCGUCAAAUUGCGGGAAAGGGGUCAACAGCCGUUCAGUACCAAGUCUCAGGGGAAACUUUGAGAUGGCCUUGCAAAGGGUAUGGUAAUAAGCUGACGGACAUGGUCCUAACCACGCAGCCAAGUCCUAAGUCAACAGAUCUUCUGUUGAUAUGGAUGCAGUUCACAGACUAAAUGUCGGUCGGGGAAGAUGUAUUCUUCUCAUAAGAUAUAGUCGGACCUCUCCUUAAUGGGAGCUAGCGGAUGAAGUGAUGCAACACUGGAGCCGCUGGGAACUAAUUUGUAUGCGAAAGUAUAUUGAUUAGUUUUGGAGUACUCGUGGUCG
Method in brief: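 Colonies from six replicate transformations of E. coli BL21(DE3) were pooled and amplicon-sequenced on an Illumina HiSeq 2500. The library placed an intron with all eight P1ex-region nucleotides randomised inside the knt kanamycin-resistance gene on pET-22b(+), and cells grew overnight at 37°C or 30°C on LB agar with or without 25 μg/mL kanamycin (plus 100 μg/mL carbenicillin, 50 μM IPTG, 0.2% rhamnose). Fitness is the DiMSum error-weighted combination of wild-type-normalised replicate fold changes, kanamycin versus none.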

Sequence	self-splicing fitness (ln) (30 °C)	self-splicing fitness (ln) (37 °C)
CUACAGCAAUAUUACGAGGU	-2.63 ± 0.13	-3.03 ± 0.27
UCAGAGCAAUAUUACGUUGG	-3.05 ± 0.21	-2.9 ± 0.35
AGUAAGCAAUAUUACGUAGA	-3.23 ± 0.19	-1.78 ± 0.16
GUACAGCAAUAUUACGAGGG	-3.21 ± 0.17	-2.42 ± 0.2
UUCCAGCAAUAUUACGUUAC	-3.45 ± 0.43	-2.57 ± 0.25
CGUAAGCAAUAUUACGUAUA	-2.48 ± 0.26	-2.21 ± 0.26
ACUGAGCAAUAUUACGAUUC	-2.78 ± 0.5	-1.57 ± 0.31
CGUCAGCAAUAUUACGGUCA	-0.717 ± 0.08	0.201 ± 0.1
GGCAAGCAAUAUUACGAGGA	-3.3 ± 0.42	-1.77 ± 0.24
GUGUAGCAAUAUUACGGUGU	-2.26 ± 0.16	-0.0252 ± 0.14
CGGCAGCAAUAUUACGUUUA	-2.06 ± 0.12	-1.53 ± 0.13
AGAGAGCAAUAUUACGGUGU	-3.59 ± 0.25	-2.97 ± 0.22
CCUAAGCAAUAUUACGUAUG	-1.82 ± 0.082	-0.95 ± 0.087
AUUGAGCAAUAUUACGUCAU	-2.76 ± 0.14	-2.12 ± 0.17
CCAUAGCAAUAUUACGAAGG	-3.26 ± 0.22	-2.87 ± 0.34
AGCCAGCAAUAUUACGGGGU	-4.08 ± 0.19	-2.22 ± 0.15
CAAUAGCAAUAUUACGGAAA	-3.49 ± 0.19	-2.83 ± 0.32
UUUGAGCAAUAUUACGGCAA	-1.72 ± 0.18	-0.742 ± 0.22
CGCGAGCAAUAUUACGAGCU	-3.72 ± 0.37	-2.22 ± 0.27
UUGGAGCAAUAUUACGGCGA	-1.32 ± 0.48	
GAAAAGCAAUAUUACGAAAA	-2.25 ± 0.22	-2.42 ± 0.17
CGACAGCAAUAUUACGAGUC	-4.97 ± 0.36	-2.42 ± 0.24
AUCAAGCAAUAUUACGCUCG	-0.803 ± 0.091	-0.236 ± 0.11
UUUGAGCAAUAUUACGAUGA	-0.96 ± 0.19	-0.161 ± 0.21
GCGUAGCAAUAUUACGCUUU	-3.68 ± 0.22	-3.98 ± 0.19

Sequence	self-splicing fitness (ln) (30 °C)	self-splicing fitness (ln) (37 °C)
AGAGAGCAAUAUUACGGCCU	-0.408 ± 0.3	-2.58 ± 0.5
AACCAGCAAUAUUACGACUA	0.0905 ± 0.084	-0.0751 ± 0.079
GCCCAGCAAUAUUACGGGAU	-1.74 ± 0.081	-1.25 ± 0.1
ACCUAGCAAUAUUACGCCUA	-2.17 ± 0.3	-2.38 ± 0.3
UAGCAGCAAUAUUACGGCGA	-0.238 ± 0.077	0.939 ± 0.1
GCCUAGCAAUAUUACGCUUA	-1.01 ± 0.1	-0.807 ± 0.11
UAUGAGCAAUAUUACGUCUC	-2.45 ± 0.25	
GUUUAGCAAUAUUACGAGAG	-3.02 ± 0.17	-2 ± 0.14
GGCUAGCAAUAUUACGUAUA	-1.27 ± 0.22	-0.659 ± 0.19
CCUCAGCAAUAUUACGAAGG	-3.6 ± 0.34	-1.84 ± 0.4
GACUAGCAAUAUUACGGACU	-0.117 ± 0.11	-0.611 ± 0.14
AACGAGCAAUAUUACGCGGC	-2.71 ± 0.33	-2.15 ± 0.33
UAAGAGCAAUAUUACGGGAA	-2.21 ± 0.3	-1.77 ± 0.24
AGUCAGCAAUAUUACGGCUG	-0.616 ± 0.12	-1.96 ± 0.22
CCGGAGCAAUAUUACGAUGU	-1.72 ± 0.14	-0.726 ± 0.17
UUACAGCAAUAUUACGAUGU	-4.69 ± 0.39	-2.86 ± 0.23
AGAAAGCAAUAUUACGUCUA	-0.728 ± 0.091	-0.00176 ± 0.092
AUGAAGCAAUAUUACGCGCU	-0.561 ± 0.082	0.35 ± 0.11
UGAAAGCAAUAUUACGCUUC	-2.32 ± 0.42	-2.29 ± 0.29
UGGGAGCAAUAUUACGUGGU	-2.97 ± 0.35	-1.56 ± 0.26
CUCUAGCAAUAUUACGCUCA	-1.32 ± 0.3	-3.25 ± 0.37
CGUAAGCAAUAUUACGUAUG	-2.17 ± 0.08	-0.311 ± 0.072
UAGUAGCAAUAUUACGUAUG	-1.82 ± 0.1	-0.711 ± 0.12
GAGGAGCAAUAUUACGGGUG	-3.55 ± 0.27	-1.95 ± 0.32
ACUAAGCAAUAUUACGGUAA	-1.56 ± 0.17	-1.92 ± 0.18

Sequence	self-splicing fitness (ln) (30 °C)	self-splicing fitness (ln) (37 °C)
UCCCAGCAAUAUUACGUAAU	-2.01 ± 0.068	-0.749 ± 0.085
GACCAGCAAUAUUACGAAGA	-1.44 ± 0.14	-0.589 ± 0.12
UGAUAGCAAUAUUACGACGG	-1.4 ± 0.19	0.124 ± 0.18
GGAUAGCAAUAUUACGGGCG	-1.69 ± 0.13	-0.955 ± 0.094
AAUCAGCAAUAUUACGAACG	-0.399 ± 0.088	-0.368 ± 0.1
GGCCAGCAAUAUUACGUAUU	-2.14 ± 0.11	-0.199 ± 0.087
GCAUAGCAAUAUUACGAGAG	-2.71 ± 0.27	-2.35 ± 0.21
AUUGAGCAAUAUUACGGUAA	-3.25 ± 0.22	-2.53 ± 0.2
GAAGAGCAAUAUUACGCCCG	-1.59 ± 0.47	
UCACAGCAAUAUUACGGCUG	-3.35 ± 0.16	-2.96 ± 0.23
CACCAGCAAUAUUACGGCGA	-1.62 ± 0.061	-1.23 ± 0.063
UUGCAGCAAUAUUACGCAUC	-3.11 ± 0.22	-3.18 ± 0.33
CUUGAGCAAUAUUACGGUCA	-1.65 ± 0.18	-3.58 ± 0.46
ACUCAGCAAUAUUACGGACU	0.409 ± 0.086	-0.57 ± 0.087
UCUCAGCAAUAUUACGACUG	-2.79 ± 0.17	-3.11 ± 0.28
UUAAAGCAAUAUUACGCCGA	-0.193 ± 0.12	0.491 ± 0.15
AAUUAGCAAUAUUACGCUCU	-0.501 ± 0.11	0.54 ± 0.15
CGGUAGCAAUAUUACGAAAC		-2.72 ± 0.27
GGCCAGCAAUAUUACGCAUG	-2.27 ± 0.12	-1.3 ± 0.14
CAGUAGCAAUAUUACGCAUC		-1.82 ± 0.26
CUCUAGCAAUAUUACGAUAG	-3.88 ± 0.2	-3.58 ± 0.28
ACAAAGCAAUAUUACGUGUG	-1.91 ± 0.052	-0.905 ± 0.057
AGAUAGCAAUAUUACGAUAG	-2.88 ± 0.21	-2.31 ± 0.18
AACGAGCAAUAUUACGAAGA	-3.13 ± 0.33	-1.82 ± 0.44
GGAGAGCAAUAUUACGUCUU	-4.08 ± 0.28	-3.23 ± 0.38

Sequence	self-splicing fitness (ln) (30 °C)	self-splicing fitness (ln) (37 °C)
UCUUAGCAAUAUUACGUAGC	-3.98 ± 0.46	-1.98 ± 0.21
GUUCAGCAAUAUUACGGGGG	-1.52 ± 0.13	-1.4 ± 0.16
AUUCAGCAAUAUUACGGACA	-0.904 ± 0.078	-0.744 ± 0.095
UGACAGCAAUAUUACGAUUU	-0.733 ± 0.094	-0.108 ± 0.1
UGAAAGCAAUAUUACGGCGU	-1.12 ± 0.095	0.0159 ± 0.11
UGCGAGCAAUAUUACGCCCU	-0.783 ± 0.39	
CACUAGCAAUAUUACGAAAG	-1.23 ± 0.062	-0.136 ± 0.084
CCGCAGCAAUAUUACGCUAC	-4.14 ± 0.28	-2.37 ± 0.23
UUGAAGCAAUAUUACGGCGC	-2.04 ± 0.17	-0.68 ± 0.19
UGCCAGCAAUAUUACGCGAC	-2.62 ± 0.3	-0.608 ± 0.23
GAGCAGCAAUAUUACGCGAC	-3.05 ± 0.49	-1.13 ± 0.29
GGCUAGCAAUAUUACGCCUG	-3.72 ± 0.29	-1.95 ± 0.23
AUUAAGCAAUAUUACGAUUA	-0.777 ± 0.13	-0.308 ± 0.13
CAGAAGCAAUAUUACGGUGC	-4.16 ± 0.24	-3.04 ± 0.18
GGUUAGCAAUAUUACGGGCC	-2.52 ± 0.27	-1.47 ± 0.29
AUAUAGCAAUAUUACGGUCU	-0.211 ± 0.076	0.0619 ± 0.1
AUUCAGCAAUAUUACGACCU	-0.21 ± 0.095	0.317 ± 0.12
UCUUAGCAAUAUUACGAGCG	-1.36 ± 0.13	-0.498 ± 0.15
GUUGAGCAAUAUUACGAGGG	-2.7 ± 0.21	-2.67 ± 0.24
CGUUAGCAAUAUUACGGCCG	-1.84 ± 0.41	-0.176 ± 0.35
ACACAGCAAUAUUACGUGAG	-1.02 ± 0.05	0.121 ± 0.074
ACUCAGCAAUAUUACGUGAC	-3.15 ± 0.14	-0.561 ± 0.11
